The data set has as its target recombinant TIMP-1 (Biogenesis, Poole, UK).

B1: recombinant human caspase-3 (Calbiochem) (protein)
chain: SGISLDNSYKMDYPEMGLCIIINNKNFHKSTGMTSRSGTDVDAANLRETFRNLKYEVRNKNDLTREEIVELMRDVSKEDHSKRSSFVCVLLSHGEEGIIFGTNGPVDLKKITNFFRGDRCRSLTGKPKLFIIQACRGTELDCGIETDSGVDDDMACHKIPVEADFLYAYSTAPGYYSWRNSKDGSWFIQSLCAMLKQYADKLEFMHILTRVNRKVATEFESFSFDATFHAKKQIPCIVSMLTKELYFYH
Take B1: the “caspase-3 activity (colorimetric substrate assay; recombinant caspase-3 incubated with TIMP-1 at 285-2850 ng/ml for 1 hour before the substrate was added)” value was “TIMP-1 did not reduce caspase-3 activity directly (data not shown)”.

(Values after patent US20050191302.)
